Measurements from patent US20240301385, “DNA MODIFYING ENZYMES AND ACTIVE FRAGMENTS AND VARIANTS THEREOF AND METHODS OF USE” (LIFEEDIT THERAPEUTICS, INC., published 2024).

Experiments:
[1] = biological target: T1, APG09980-L16-nAPG07433.1 cytosine base editor (synthetic); experiment: cell_activity; HEK293FT; PAM SEQ 152; details: tags: SV40 NLS, 3xFLAG N-term; nucleoplasmin NLS C-term
T1 chain: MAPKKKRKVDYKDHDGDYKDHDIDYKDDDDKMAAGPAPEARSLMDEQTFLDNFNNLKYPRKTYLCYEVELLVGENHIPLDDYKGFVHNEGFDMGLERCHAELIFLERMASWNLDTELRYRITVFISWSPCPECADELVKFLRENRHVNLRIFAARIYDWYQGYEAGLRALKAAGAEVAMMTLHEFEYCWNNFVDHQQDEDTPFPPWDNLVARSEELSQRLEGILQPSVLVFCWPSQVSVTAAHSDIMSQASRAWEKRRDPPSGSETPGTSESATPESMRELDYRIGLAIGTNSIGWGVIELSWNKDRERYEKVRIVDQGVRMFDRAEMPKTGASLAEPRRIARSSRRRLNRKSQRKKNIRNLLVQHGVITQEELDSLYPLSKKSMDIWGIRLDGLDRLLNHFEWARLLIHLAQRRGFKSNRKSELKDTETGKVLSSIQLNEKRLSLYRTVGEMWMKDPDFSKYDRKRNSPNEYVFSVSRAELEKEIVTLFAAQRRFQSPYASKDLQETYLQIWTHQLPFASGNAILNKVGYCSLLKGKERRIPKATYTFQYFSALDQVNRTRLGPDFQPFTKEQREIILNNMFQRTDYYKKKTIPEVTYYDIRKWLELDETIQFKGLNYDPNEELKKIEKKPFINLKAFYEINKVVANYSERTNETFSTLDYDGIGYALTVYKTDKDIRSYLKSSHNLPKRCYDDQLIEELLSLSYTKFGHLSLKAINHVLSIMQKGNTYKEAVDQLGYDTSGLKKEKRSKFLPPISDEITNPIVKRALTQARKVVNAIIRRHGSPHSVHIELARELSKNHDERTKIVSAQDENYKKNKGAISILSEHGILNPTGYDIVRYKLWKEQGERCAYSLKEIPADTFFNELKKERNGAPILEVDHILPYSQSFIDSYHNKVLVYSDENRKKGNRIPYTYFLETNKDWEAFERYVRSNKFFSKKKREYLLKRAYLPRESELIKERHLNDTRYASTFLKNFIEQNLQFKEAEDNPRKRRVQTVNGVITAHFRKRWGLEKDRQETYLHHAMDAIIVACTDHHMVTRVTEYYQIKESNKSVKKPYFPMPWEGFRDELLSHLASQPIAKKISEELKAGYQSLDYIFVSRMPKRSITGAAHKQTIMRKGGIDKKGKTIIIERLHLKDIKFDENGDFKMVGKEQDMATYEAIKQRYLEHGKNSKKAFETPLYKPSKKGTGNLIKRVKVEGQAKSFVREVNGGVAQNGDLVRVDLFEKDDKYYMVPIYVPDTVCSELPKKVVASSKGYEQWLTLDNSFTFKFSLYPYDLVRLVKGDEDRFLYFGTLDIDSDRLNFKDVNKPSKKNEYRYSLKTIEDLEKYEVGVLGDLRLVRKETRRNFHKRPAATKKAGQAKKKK
How it was run: (§1)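 Editing read out by next-generation sequencing (MiSeq 2×250) of PCR amplicons spanning the target site, analysed for INDELs or % cytosine conversion per position (position 1 nearest PAM).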

[2] = biological target: APG05840.1-L16-nAPG07433.1-USP2 (synthetic); experiment: cell_activity; HEK293FT; PAM SEQ 152; details: tags: SV40 NLS, 3xFLAG N-term; USP2, nucleoplasmin NLS C-term
How it was run: as §1

B1: SGN000930 sgRNA ; SGN000930 target (ssRNA ; dsDNA)
RNA: GAACAACUCAAAUGGAAAUGAAUAUGUCAUAGUUCCAUGAAAGCCAAAAGUGGCUUUGAUGUUUCUAUGAUAAGGGUUUCGGCCCGUGGCGUCGGGGAUCGCCUGCCCAUUCCGAUGGGCUUCUCCCCAUUUAUU
DNA 1: GAACAACTCAAATGGAAATGAATAT
DNA 2: ATATTCATTTCCATTTGAGTTGTTC
activity [1]: 25.2 % mutated reads | activity [2]: 13.1 % mutated reads

B2: SGN000169 sgRNA ; SGN000169 target (ssRNA ; dsDNA)
RNA: CACAUCUCGAGCAAGACGUUGUCAUAGUUCCAUUAAAGCCAAAAGUGGCUUUGAUGUUUCUAUGAUAAGGGUUUCGACCCGUGGCGUCGGGGAUCGCCUGCCCAUUGAAAUGGGCUUCUCCCCAUUUAUU
DNA 1: CACATCTCGAGCAAGACGTT
DNA 2: AACGTCTTGCTCGAGATGTG
activity [1]: 24.8 % mutated reads

B3: SGN001101 sgRNA ; SGN001101 target (ssRNA ; dsDNA)
RNA: AUAUUUUCUUUAAUGGUGCCAGGCAGUCAUAGUUCCAUUAAAGCCAAAAGUGGCUUUGAUGUUUCUAUGAUAAGGGUUUCGACCCGUGGCGUCGGGGAUCGCCUGCCCAUUGAAAUGGGCUUCUCCCCAU
DNA 1: ATATTTTCTTTAATGGTGCCAGGCA
DNA 2: TGCCTGGCACCATTAAAGAAAATAT
activity [2]: 12.7 % mutated reads
